Source: patent US20250388641A1 (CUGENE, published 2025)

T1: huIL-15Rβ-6His (human, UniProt P14784 27-240, limits assumed)
T1 construct: Coated on the ELISA plate; also called hull-15Rβ-6His; IL-15Rβ subunit
T1 sequence: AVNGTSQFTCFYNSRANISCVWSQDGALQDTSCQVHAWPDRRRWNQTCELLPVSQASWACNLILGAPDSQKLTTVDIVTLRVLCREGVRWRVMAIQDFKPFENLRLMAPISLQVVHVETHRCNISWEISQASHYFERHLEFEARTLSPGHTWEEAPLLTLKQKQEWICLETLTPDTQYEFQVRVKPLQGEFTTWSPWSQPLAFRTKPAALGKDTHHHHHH


How the values were obtained:
huIL-15Rβ-6His [1] = target: T1, huIL-15Rβ-6His; test: ELISA binding EC50 relative to wild type P-0153
Description: (§1) The binding activity was tested in ELISA assay. Briefly, Nunc Maxisorp (ThermoFisher) plates were coated overnight at 4° C. with hull-15Rβ-6His at 1 ug/well (100 μl/well) in bicarbonate buffer pH 9.4 (ThermoFisher). After washing 3 times with PBS/0.05% Tween20, plates were incubated with SuperBlock (300 μl/well) at room temperature for 2 hrs. to block nonspecific binding. After washing, IL-15 compounds each at 3-fold serial dilutions with blocking buffer were added to the plates (100 μl/well) and incubated at room temperature for 1 hr. After washing, the Fc fusions were detected by 1 hr. incubation at room temperature with a goat anti-human IgG Fc secondary antibody conjugated with horseradish peroxidase (HRP) at 1:5000 dilution in blocking buffer (ThermoFisher) (100 μl/well). After washing, TMB substrate (ThermoFisher) was added (100 μl/well). Plates were sealed and incubated 5-20 min at room temperature in dark. Reaction was stopped by adding 2N sulfuric acid (Ricca Chemical) (50 μL/well) and absorbance was read at 450-590 nm.

huIL-15Rβ-6His [2] = target: T1, huIL-15Rβ-6His; test: ELISA, huIL-15Rβ-6His coated on plate, anti-human IgG Fc-HRP detection
Description: as §1

huIL-15Rβ-6His [3] = target: T1, huIL-15Rβ-6His; test: ELISA binding EC50 relative to wild type (3.9 nM)
Description: as §1

huIL-15Rβ-6His [4] = target: T1, huIL-15Rβ-6His; test: ELISA binding to IL-15Rβ, relative to wild type (repeats Table 3)
Description: as §1

Row | Fold change (huIL-15Rβ-6His [1]) | EC50 (huIL-15Rβ-6His [2]) | Fold change (huIL-15Rβ-6His [3]) | Fold change in binding EC50 (huIL-15Rβ-6His [4]) | Binder
1 | 36 fold | 23.1 nM | – | – | P-0178, IL-15/IL-15Rα heterodimeric Fc fusion, IL-15i3 (… insertion after N95) (Fc fusion) chain 1: DKTHTCPPCPAPEAAGAPSVFLFPPKPKDTLMISRTPEVTCVVVDVSHEDPEVKFNWYVDGVEVHNAKTKPREEQYNSTYRVVSVLTVLHQDWLNGKEYKCKVSNKALPAPIEKTISKAKGQPREPQVYTLPPCREEMTKNQVSLSCAVKGFYPSDIAVEWESNGQPENNYKTTPPVLDSDGSFFLVSKLTVDKSRWQQGNVFSCSVMHEALHNHYTQKSLSLSPGEPKSSDKTHTSPPSPNWVNVISDLKKIEDLIQSMHIDATLYTESDVHPSCKVTAMKCFLLELQVISLESGDASIHDTVENLIILANNSLSSNGNVTESGCKECEELEEKNGSSGSSGGSIKEFLQSFVHIVQMFINTS chain 2: DKTHTCPPCPAPEAAGAPSVFLFPPKPKDTLMISRTPEVTCVVVDVSHEDPEVKFNWYVDGVEVHNAKTKPREEQYNSTYRVVSVLTVLHQDWLNGKEYKCKVSNKALPAPIEKTISKAKGQPREPQVCTLPPSREEMTKNQVSLWCLVKGFYPSDIAVEWESNGQPENNYKTTPPVLDSDGSFFLYSKLTVDKSRWQQGNVFSCSVMHEALHNHYTQKSLSLSPGEPKSSDKTHTSPPSPITCPPPMSVEHADIWVKSYSLYSRERYICNSGFKRKAGTSSLTECVLNKATNVAHWTTPSLKCIRDPALVHQRPAPP
2 | – | 5.57 nM | 1.4 fold | 1.4 fold | P-0181, IL-15/IL-15Rα heterodimeric Fc fusion, IL-15m3 (Q108S, D30T, V31Y, H31E) (Fc fusion) chain 1: DKTHTCPPCPAPEAAGAPSVFLFPPKPKDTLMISRTPEVTCVVVDVSHEDPEVKFNWYVDGVEVHNAKTKPREEQYNSTYRVVSVLTVLHQDWLNGKEYKCKVSNKALPAPIEKTISKAKGQPREPQVYTLPPCREEMTKNQVSLSCAVKGFYPSDIAVEWESNGQPENNYKTTPPVLDSDGSFFLVSKLTVDKSRWQQGNVFSCSVMHEALHNHYTQKSLSLSPGEPKSSDKTHTSPPSPNWVNVISDLKKIEDLIQSMHIDATLYTESTYEPSCKVTAMKCFLLELQVISLESGDASIHDTVENLIILANNSLSSNGNVTESGCKECEELEEKNIKEFLQSFVHIVSMFINTS chain 2: DKTHTCPPCPAPEAAGAPSVFLFPPKPKDTLMISRTPEVTCVVVDVSHEDPEVKFNWYVDGVEVHNAKTKPREEQYNSTYRVVSVLTVLHQDWLNGKEYKCKVSNKALPAPIEKTISKAKGQPREPQVCTLPPSREEMTKNQVSLWCLVKGFYPSDIAVEWESNGQPENNYKTTPPVLDSDGSFFLYSKLTVDKSRWQQGNVFSCSVMHEALHNHYTQKSLSLSPGEPKSSDKTHTSPPSPITCPPPMSVEHADIWVKSYSLYSRERYICNSGFKRKAGTSSLTECVLNKATNVAHWTTPSLKCIRDPALVHQRPAPP
